Here are results for 6 molecules from publication PMC7334207, “Select amino acids in DGCR8 are essential for the UGU-pri-miRNA interaction and processing” (Communications Biology, 2020).

A word on the stoichiometry N: it is a count of units in the complex or per binding partner. Broadly, the Kd is the concentration at which binding is half-saturated.

Data set [1] deals with the molecule itself. The data set is described as follows: SEC-MALS; molecular mass of the purified protein estimated with a Multi-Angle Light Scattering detector (miniDAWN TREOS, Wyatt Technology Corporation); compared with the theoretical mass of a dimer.
A further data set concerns the target T1, G478del-mut1 (Homo sapiens, UniProt Q8WYQ5 285-478, W461A;A462G;E463Q;del370-429).
T1 sequence: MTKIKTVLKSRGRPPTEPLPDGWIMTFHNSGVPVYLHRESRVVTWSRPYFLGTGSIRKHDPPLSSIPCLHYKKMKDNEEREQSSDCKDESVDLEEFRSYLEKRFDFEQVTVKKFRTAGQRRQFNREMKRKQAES
The data set is described as follows: EMSA; 50 mM Tris-HCl pH 7.5, 250 mM NaCl, 10% glycerol, 0.2 mg/ml BSA, 1 mM DTT, 2 mM EDTA; 1 uM RNA in 10 uL; on ice 60 min; 4% native PAGE at 4 C, ethidium bromide. The note with it: protein: recombinant; tags: 10xHis; chain copies: 2; hairpin. (In general: In EMSA bound probe runs differently from free probe, usually more slowly.)

For the next data set, the target named is T2, G478 (Rhed) (Homo sapiens, UniProt Q8WYQ5 285-478).
T2 sequence: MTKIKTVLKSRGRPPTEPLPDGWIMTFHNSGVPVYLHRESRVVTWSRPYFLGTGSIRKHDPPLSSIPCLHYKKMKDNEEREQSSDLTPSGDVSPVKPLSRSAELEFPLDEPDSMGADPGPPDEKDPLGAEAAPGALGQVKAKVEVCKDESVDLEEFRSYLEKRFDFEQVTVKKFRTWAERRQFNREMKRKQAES
Described as above. The note with it: protein: recombinant; (purified as for G4; theoretical dimer 44 kDa implies no GFP); chain copies: 2; hairpin.

A further data set addresses T3, G478del WT (Homo sapiens, UniProt Q8WYQ5 285-478, del370-429).
T3 sequence: T1 sequence with A117W, G118A, Q119E
The description is as above. The note with it: protein: recombinant; chain copies: 2; hairpin.

The target in data set [2] is T4, G478del WT-mut1 hybrid dimer (Homo sapiens, UniProt Q8WYQ5;Q8WYQ5 285-369+430-478;285-369+430-478, internal_change;W461A;A462G;E463Q;internal_change).
T4 sequence 1: T1 sequence with A117W, G118A, Q119E
T4 sequence 2: T1 sequence
The data set is described as above. The conditions noted are these: protein: recombinant; tags: 10xHis on mut1 subunit; protein G on WT subunit removed by HRV 3C; copies: 1;1; hairpin.

Where a chain is given by its changes, count along the chain named.

B1: G478, Rhed (RNA-binding heme domain) of DGCR8, amino acids 285–478 (domain or fragment, human, UniProt Q8WYQ5 285-478, looked up)
chain: T2 sequence
notes: Associated with hemin; also called Rhed dimer; G478 dimer; source: E. coli, purified (as described for the G4 fragments: Ni2+-agarose, SP-sepharose; then Superdex 200)
On to B1, for which the “stoichiometry N” value in data set [1] is 2.

ACUGGAAGCUGUGAAAGAUGGGCUUUCAGU (structured_RNA) [10L10_UGU]: the Kd with G478del-mut1 was found to be 9.03 ± 0.61 µM; with G478 (Rhed), 3.43 ± 0.29 µM; in the data set with G478del WT it was 5.73 ± 0.39 µM; in data set [2], 5.43 ± 0.46 µM.

B2: G478del, G478 (DGCR8 amino acids 285–478) with the 370–429 region deleted (domain or fragment, human, UniProt Q8WYQ5 285-478, looked up)
chain: T1 sequence with A117W, G118A, Q119E
notes: Associated with hemin; Theoretical dimer mass ~30 kDa as printed; also called G478del–WT; source: E. coli, purified (as described for G478)
Take B2: the “stoichiometry N” value in data set [1] was 2.

B3: G478del-mut1, G478del with AGQ in the 461–463 region instead of WAE (domain or fragment, human, UniProt Q8WYQ5 285-478, looked up)
chain: T1 sequence
notes: Associated with hemin; source: E. coli, purified (as described for G478del)
In the case of B3, in data set [1], the “stoichiometry N” value is 2.

B4: G460del, G478del with the 461–478 region deleted (domain or fragment, human, UniProt Q8WYQ5 285-460, looked up)
chain: MTKIKTVLKSRGRPPTEPLPDGWIMTFHNSGVPVYLHRESRVVTWSRPYFLGTGSIRKHDPPLSSIPCLHYKKMKDNEEREQSSDCKDESVDLEEFRSYLEKRFDFEQVTVKKFRT
notes: Lost its hemin-associating ability; source: E. coli, purified (as G478 and its variants)
Turning to B4, in data set [1], the “stoichiometry N” value was 2.

As for ACUGGAAGCCAAGAAAGAUGGGCUUUCAGU (structured_RNA) [10L10_noUGU], the dissociation constant (Kd) in the data set with G478del-mut1 worked out at 13.8 ± 0.39 µM; in the data set with G478 (Rhed) it was 8.57 ± 0.96 µM; with G478del WT, 16.8 ± 1.48 µM; in data set [2], 11.5 ± 0.77 µM.
